# Measured values published in paper PMC10889005.
# Molecular target: KPNA4 (UniProt O00629)
# Experiment: pull-down/IP from co-transfected cells
# Conditions: reference: IRF3 wild type; sites S97
substance,measurement,value
IRF3 (from UniProt Q14653) IRF3 S97A,binding against the reference,stronger
